Reference: patent US20190153059A1 (ADEPTHERA, published 2019)
Read-outs that look alike come from different tables or passages of the source. * marks the point of attachment. Palmitoyl = CCCCCCCCCCCCCCCC(=O)*

What was measured:
Experiment in all cases: cell-based or functional assay
CLR/RAMP2 receptor [1] = target: T1, CLR/RAMP2 receptor (UniProt Q16602 23-461; O60895 43-175, limits assumed)
CLR/RAMP2 receptor [2] = target: T1, CLR/RAMP2 receptor; remark: listed apart in the source
CLR/RAMP1 receptor [3] = target: T2, CLR/RAMP1 receptor (UniProt Q16602 23-461; O60894 27-148, limits assumed)
T2 sequence (Q16602 23-461 limits assumed, chain 1 of 2): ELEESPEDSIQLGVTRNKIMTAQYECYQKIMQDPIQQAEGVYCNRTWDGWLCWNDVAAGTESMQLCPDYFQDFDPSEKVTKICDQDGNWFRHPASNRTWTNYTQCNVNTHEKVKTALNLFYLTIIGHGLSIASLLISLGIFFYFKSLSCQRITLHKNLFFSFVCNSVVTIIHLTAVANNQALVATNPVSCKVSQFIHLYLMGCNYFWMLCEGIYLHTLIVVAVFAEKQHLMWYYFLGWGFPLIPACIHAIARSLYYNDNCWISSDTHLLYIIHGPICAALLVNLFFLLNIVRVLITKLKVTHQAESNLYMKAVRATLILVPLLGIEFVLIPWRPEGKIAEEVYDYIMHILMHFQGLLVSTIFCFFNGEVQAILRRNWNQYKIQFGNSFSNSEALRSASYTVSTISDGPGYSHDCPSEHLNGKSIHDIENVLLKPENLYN
T2 sequence (O60894 27-148 limits assumed, chain 2 of 2): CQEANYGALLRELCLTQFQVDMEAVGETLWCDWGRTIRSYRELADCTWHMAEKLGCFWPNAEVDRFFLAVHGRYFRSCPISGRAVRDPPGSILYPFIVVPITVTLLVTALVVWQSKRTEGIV

CLR/RAMP3 receptor = CLR/RAMP3 receptor (UniProt Q16602 23-461; O60896 24-148, limits assumed)
CLR/RAMP3 receptor, sequence (Q16602 23-461 limits assumed, chain 1 of 2): as the sequence (Q16602 23-461 limits assumed, chain 1 of 2) above
CLR/RAMP3 receptor, sequence (O60896 24-148 limits assumed, chain 2 of 2): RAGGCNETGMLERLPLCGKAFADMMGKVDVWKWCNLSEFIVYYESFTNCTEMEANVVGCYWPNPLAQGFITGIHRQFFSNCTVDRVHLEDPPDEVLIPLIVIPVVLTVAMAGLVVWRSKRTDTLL

CLR/RAMP2 receptor [4] = target: T1, CLR/RAMP2 receptor; remark: listed apart in the source
CLR/RAMP1 receptor [5] = target: T2, CLR/RAMP1 receptor; remark: listed apart in the source
[6] = target: neurotensin receptor 1 (NTSR1) (UniProt P30989 1-418, limits assumed)
neurotensin receptor 1 (NTSR1), sequence (P30989 whole entry): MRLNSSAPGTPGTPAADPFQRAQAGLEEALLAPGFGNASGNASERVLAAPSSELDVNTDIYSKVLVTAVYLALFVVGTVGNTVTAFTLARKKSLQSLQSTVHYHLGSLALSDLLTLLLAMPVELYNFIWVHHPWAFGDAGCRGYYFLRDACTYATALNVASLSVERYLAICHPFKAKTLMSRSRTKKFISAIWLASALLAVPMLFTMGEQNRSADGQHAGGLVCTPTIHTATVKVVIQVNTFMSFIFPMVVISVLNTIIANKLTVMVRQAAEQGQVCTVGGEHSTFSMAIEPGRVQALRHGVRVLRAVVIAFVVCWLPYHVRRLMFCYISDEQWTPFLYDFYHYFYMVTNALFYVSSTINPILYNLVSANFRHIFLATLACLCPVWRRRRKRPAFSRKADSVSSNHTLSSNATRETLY

[7] = target: T3, type 1 angiotensin II receptor AGTR1 (UniProt P30556 1-359, limits assumed)
T3 sequence (looked up): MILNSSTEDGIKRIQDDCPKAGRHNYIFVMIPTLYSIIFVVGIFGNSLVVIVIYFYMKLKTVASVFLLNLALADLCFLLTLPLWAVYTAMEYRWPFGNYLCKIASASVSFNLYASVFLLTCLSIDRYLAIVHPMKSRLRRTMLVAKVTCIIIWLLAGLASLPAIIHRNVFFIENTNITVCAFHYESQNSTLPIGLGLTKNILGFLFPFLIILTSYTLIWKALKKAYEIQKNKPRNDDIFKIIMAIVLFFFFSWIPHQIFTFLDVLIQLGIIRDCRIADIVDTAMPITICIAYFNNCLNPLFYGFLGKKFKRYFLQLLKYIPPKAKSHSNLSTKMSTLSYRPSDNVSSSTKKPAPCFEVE

[8] = target: T3, type 1 angiotensin II receptor AGTR1; remark: listed apart in the source

T1 sequence (Q16602 23-461 limits assumed, chain 1 of 2): as the sequence (Q16602 23-461 limits assumed, chain 1 of 2) above
T1 sequence (O60895 43-175 limits assumed, chain 2 of 2): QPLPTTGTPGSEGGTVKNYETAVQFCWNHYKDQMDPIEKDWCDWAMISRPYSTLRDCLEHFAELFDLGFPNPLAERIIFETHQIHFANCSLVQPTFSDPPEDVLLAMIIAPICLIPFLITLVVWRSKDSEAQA

For “Wild type ADM positive (human ADM positive control) (from UniProt P35318 95-146) (peptide)”, the CLR/RAMP2 Max Activity (% of positive controls) (CLR/RAMP2 receptor [1]) was 100.

For miniPEG-KGCRFGTCTVQKLAHQIYQFTDKDSAPVDPSSPHSY-NH2 (cysteine pairing not given here; also: K(PAL) present, lysine not given here) [SEQ ID NO: 48], the “CLR/RAMP2 EC50” value (CLR/RAMP2 receptor [2]) was 200 pM, the “CLR/RAMP1 EC50” value (CLR/RAMP1 receptor [3]) was 300 pM and the “CLR/RAMP3 EC50” value (CLR/RAMP3 receptor) was 70 pM.

In the case of Palmitoyl-KGCRFGTCTVQKLAHQIYQFTDKDVAPRSKISPQGY-NH2 (ends and bridges not checked) [SEQ ID NO: 103], the “CLR/RAMP2 EC50” value (CLR/RAMP2 receptor [2]) is reported as 700 pM, the “CLR/RAMP1 EC50” value (CLR/RAMP1 receptor [3]) is reported as 4500 pM and the “CLR/RAMP3 EC50” value (CLR/RAMP3 receptor) is reported as 300 pM.

For XLYENKPRRPYILKGCRFGTCTVQKLAHQIYQFTDKDVAPRSKISPQGY (Pyr(glu)- at N-terminus; miniPEG between LYENKPRRPYIL and K(PAL); K(PAL); -NH2) [NTSR1 and CLR/RAMP agonist MRL (SEQ ID NO: 223)], the “CLR/RAMP2 EC50” value (CLR/RAMP2 receptor [4]) was 1000 pM, the “CLR/RAMP2 Max Activity” value (CLR/RAMP2 receptor [4]) was 70 % of positive controls and the “CLR/RAMP1 EC50” value (CLR/RAMP1 receptor [5]) was 800 pM. For the same molecule, the “CLR/RAMP1 Max Activity” value (CLR/RAMP1 receptor [5]) was 102 % of positive controls.

With Palmitoyl-KGCRFGTCTVQKLAHQIYQFTDKDSAPVDPSSPHSY-NH2 (cysteine pairing not given here) [SEQ ID NO: 92] the “CLR/RAMP2 EC50” value (CLR/RAMP2 receptor [2]) was 300 pM, the “CLR/RAMP1 EC50” value (CLR/RAMP1 receptor [3]) was 400 pM and the “CLR/RAMP3 EC50” value (CLR/RAMP3 receptor) was 200 pM.

B1: NTSR1 agonist and CLR/RAMP antagonist MRL (SEQ ID NO: 224) (peptide)
peptide: XLYENKPRRPYILKVQKLSAPVDPSSPHSY
modifications: not fully specified; Pyr(glu)- at N-terminus; miniPEG between LYENKPRRPYIL and K(Pal); K(Pal); -NH2
In the case of B1, the “CLR/RAMP2 IC50” value (CLR/RAMP2 receptor [4]) is reported as 1500 pM, the “CLR/RAMP2 Max Activity (antagonist)” value (CLR/RAMP2 receptor [4]) is reported as 100 % of positive controls and the “NTSR1 EC50 (calcium flux assay)” value [6] is reported as 26000 pM. For the same molecule, the “NTSR1 Max Activity” value [6] was 57 % of positive controls, the “CLR/RAMP1 IC50” value (CLR/RAMP1 receptor [5]) was < 500 pM and the “CLR/RAMP1 Max Activity (antagonist)” value (CLR/RAMP1 receptor [5]) was 99 % of positive controls.

miniPEG-KGCRFGTCTVQKLAHQIYQFTDKDKDNSAPVDPSSPHSY-NH2 (cysteine pairing not given here; also: K(PAL) present, lysine not given here) [SEQ ID NO: 28] was tested, and the “CLR/RAMP1 EC50” value (CLR/RAMP1 receptor [3]) was 300 pM and the “CLR/RAMP3 EC50” value (CLR/RAMP3 receptor) was 60 pM.

B2: AGTRL1 and CLR/RAMP agonist MRL (SEQ ID NO: 228) (peptide)
peptide: XRPRLSHKGPLPFKGCRFGTCTVQKLAHQIYQFTDKDVAPRSKISPQGY
modifications: not fully specified; (Glp) at N-terminus; (Nle) in RPRLSHKGP(Nle)PF; miniPEG before K(PAL); K(PAL); -NH2
For B2, the “CLR/RAMP2 EC50” value (CLR/RAMP2 receptor [4]) was 2000 pM, the “CLR/RAMP2 Max Activity” value (CLR/RAMP2 receptor [4]) was 74 % of positive controls and the “CLR/RAMP1 EC50” value (CLR/RAMP1 receptor [5]) was 600 pM. For the same molecule, the “CLR/RAMP1 Max Activity” value (CLR/RAMP1 receptor [5]) was 130 % of positive controls.

For miniPEG-KGCRFGTCTVQKLAHQIYQFTDKDVAPRSKISPQGY-NH2 (ends and bridges not checked; also: K(PAL), position not given here) [SEQ ID NO: 101], the “CLR/RAMP2 EC50” value (CLR/RAMP2 receptor [2]) was 300 pM and the “CLR/RAMP3 EC50” value (CLR/RAMP3 receptor) was 500 pM.

With miniPEG-KGCRFGTCTVQKLAHQIYQFTDKDKDNVAPRSKISPQGY-NH2 (ends and bridges not checked; also: K(PAL), position not given here) [SEQ ID NO: 69] the “CLR/RAMP2 EC50” value (CLR/RAMP2 receptor [2]) was 600 pM, the “CLR/RAMP1 Max Activity” value (CLR/RAMP1 receptor [3]) was 70 % of positive control and the “CLR/RAMP3 EC50” value (CLR/RAMP3 receptor) was 600 pM.

In the case of RVYVHPAKGCRFGTCTVQKLAHQIYQFTDKDVAPRSKISPQGY (Sar at N-terminus (Sar-RVYVHPA); miniPEG before K(PAL); K(PAL); -NH2) [AGTR1 antagonist/CLR/RAMP agonist MRL (SEQ ID NO: 234)], the “CLR/RAMP2 EC50” value (CLR/RAMP2 receptor [4]) is reported as 1000 pM, the “CLR/RAMP2 Max Activity” value (CLR/RAMP2 receptor [4]) is reported as 86 % of positive controls and the “AGTR1 IC50 (calcium flux assay)” value [7] is reported as 20000 pM. For the same molecule, the “CLR/RAMP1 EC50” value (CLR/RAMP1 receptor [5]) was 300 pM, the “CLR/RAMP1 Max Activity” value (CLR/RAMP1 receptor [5]) was 132 % of positive controls and the “AGTR1 IC50 (calcium flux assay)” value [8] was 19900 pM.
